According to patent publication US20260001928A1 (CORTERIA PHARMACEUTICALS, priority 2022, published 2026):
One block for each molecule: values may come before it. *1 amine or outer side, *2 acyl side, *3 side chain or, on linkers, in order; H or OH if unused. Where a SMILES comes first, the peptide text is derived from it. Where no end group is shown, it is not given here. Side-chain parts run from the residue outwards. [ ]: non-standard residue; d: D form. The star is where a group is joined. C18 diacid = O=C(O)CCCCCCCCCCCCCCCCC(=O)*; C16 diacid = O=C(O)CCCCCCCCCCCCCCC(=O)*; γGlu = O=C(O)[C@H](CCC(=O)[*:2])N[*:1]; NMeI = CC[C@H](C)[C@H](NC)C(=O)O; Pentanoyl = CCCCC(=O)*; AEEA = NCCOCCOCC(=O)O; Aib = CC(C)(N)C(=O)O

Key:
CFR1R receptor = target: T1, CFR1R receptor (Homo sapiens, UniProt P34998); test: Activity at anti-target CFR1R receptor, cAMP assay in CRF1R-overexpression CHO-K1 cells; format: cell-based; conditions: 100% = Sauvagine at 100 nM
T1 construct: host or cells: CHO-K1 (clone 2)
T1 sequence (P34998 24-415): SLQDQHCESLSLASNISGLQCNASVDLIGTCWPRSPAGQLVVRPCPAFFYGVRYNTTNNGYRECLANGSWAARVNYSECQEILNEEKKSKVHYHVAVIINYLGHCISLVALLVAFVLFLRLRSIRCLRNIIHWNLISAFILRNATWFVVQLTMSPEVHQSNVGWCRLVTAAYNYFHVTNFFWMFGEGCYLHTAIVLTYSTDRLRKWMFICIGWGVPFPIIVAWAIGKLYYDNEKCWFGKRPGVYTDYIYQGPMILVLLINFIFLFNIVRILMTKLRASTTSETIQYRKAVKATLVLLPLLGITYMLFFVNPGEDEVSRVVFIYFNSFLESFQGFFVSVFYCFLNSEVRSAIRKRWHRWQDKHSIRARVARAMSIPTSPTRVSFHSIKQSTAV
Method: Assessment of activity at anti-target CFR1R receptor is done using the same procedure as the one described for the TeloHEAC cell line. The CRF1R-overexpression CHO-K1 cell line clone 2 was purchased from PerkinElmer. Cells were grown in a 10 cm dish at 37° C./5% CO2 in medium (F12 (Hams)/10% FBS/400 μg/ml G418) to near confluence. At that stage, cells were harvested, resuspended to 10 million/mL in culture medium without G418 and with 10% DMSO. 1 mL vial aliquots were slowly frozen to −80° C. in isopropanol and then transferred in liquid nitrogen for storage. These vials were used to run the experiment following the procedure reported in the previous paragraph, except for the compound used in the control well to define the 100% activation (Sauvagine at 100 nM) and the cell density (final cell density: 4000 cells/well)

CRF1R receptor = target: T2, CRF1R receptor (UniProt P34998 24-415, limits assumed); test: cell-based or functional assay
T2 sequence (looked up): T1 sequence (P34998 24-415)

Emax (% I) (CFR1R receptor): 14 % I
Molecule: CC[C@H](C)[C@H](NC)C(=O)N[C@H](C(=O)N[C@@H](CC(C)C)C(=O)N[C@@H](CO)C(=O)N[C@@H](CC(C)C)C(=O)N[C@@H](CC(=O)O)C(=O)N[C@@H](C(=O)N1CCC[C@H]1C(=O)N[C@H](C(=O)N[C@@H](CCCCN)C(=O)N[C@@H](CC(C)C)C(=O)N[C@@H](CCCCNC(=O)COCCOCCNC(=O)COCCOCCNC(=O)CC[C@H](NC(=O)CC[C@H](NC(=O)CCCCCCCCCCCCCCCCC(=O)O)C(=O)O)C(=O)O)C(=O)N[C@@H](CCC(N)=O)C(=O)N[C@H](C(=O)N[C@@H](CC(C)C)C(=O)N[C@@H](CC(C)C)C(=O)N[C@@H](CCCCN)C(=O)N[C@@H](CCC(N)=O)C(=O)N[C@@H](CCC(=O)O)C(=O)N[C@@H](CCCNC(=N)N)C(=O)N[C@@H](CCC(N)=O)C(=O)N[C@@H](CCCCN)C(=O)N[C@@H](CCCCN)C(=O)N[C@@H](CCC(N)=O)C(=O)N[C@@H](CCCNC(=N)N)C(=O)N[C@@H](CCC(=O)O)C(=O)N[C@@H](CCC(N)=O)C(=O)N[C@@H](C)C(=O)N[C@@H](CCC(=O)O)C(=O)N[C@@H](CCCCN)C(=O)N[C@@H](CC(N)=O)C(=O)NC(C)(C)C(=O)N[C@@H](CCC(N)=O)C(=O)N[C@H](C(=O)N[C@@H](CC(C)C)C(=O)N[C@@H](CCC(=O)O)C(=O)N[C@@H](CCC(N)=O)C(=O)N[C@H](C(N)=O)C(C)C)[C@@H](C)CC)[C@@H](C)CC)[C@@H](C)CC)C(C)C)C(C)C [compound 31] (H-[NMeI]VLSLD[dV]PIKLK([AEEA-AEEA-γGlu-γGlu-C18 diacid])QILLKQERQKKQREQAEKN[Aib]QILEQV-NH2)

Emax (% I) (CFR1R receptor): 5 % I
Molecule: CCCCC(=O)N[C@H](C(=O)N[C@@H](CC(C)C)C(=O)N[C@@H](CO)C(=O)N[C@@H](CC(C)C)C(=O)N[C@@H](CC(=O)O)C(=O)N[C@@H](C(=O)N1CCC[C@H]1C(=O)N[C@H](C(=O)N[C@@H](CCCCN)C(=O)N[C@@H](CC(C)C)C(=O)N[C@@H](CCCCNC(=O)COCCOCCNC(=O)COCCOCCNC(=O)CC[C@H](NC(=O)CC[C@H](NC(=O)CCCCCCCCCCCCCCCCC(=O)O)C(=O)O)C(=O)O)C(=O)N[C@@H](CCC(N)=O)C(=O)N[C@H](C(=O)N[C@@H](CC(C)C)C(=O)N[C@@H](CC(C)C)C(=O)N[C@@H](CCCCN)C(=O)N[C@@H](CCC(N)=O)C(=O)N[C@@H](CCC(=O)O)C(=O)N[C@@H](CCCNC(=N)N)C(=O)N[C@@H](CCC(N)=O)C(=O)N[C@@H](CCCCN)C(=O)N[C@@H](CCCCN)C(=O)N[C@@H](CCC(N)=O)C(=O)N[C@@H](CCCNC(=N)N)C(=O)N[C@@H](CCC(=O)O)C(=O)N[C@@H](CCC(N)=O)C(=O)N[C@@H](C)C(=O)N[C@@H](CCC(=O)O)C(=O)N[C@@H](CCCCN)C(=O)N[C@@H](CC(N)=O)C(=O)NC(C)(C)C(=O)N[C@@H](CCC(N)=O)C(=O)N[C@H](C(=O)N[C@@H](CC(C)C)C(=O)N[C@@H](CCC(=O)O)C(=O)N[C@@H](CCC(N)=O)C(=O)N[C@H](C(N)=O)C(C)C)[C@@H](C)CC)[C@@H](C)CC)[C@@H](C)CC)C(C)C)C(C)C [compound 32] (Pentanoyl-VLSLD[dV]PIKLK([AEEA-AEEA-γGlu-γGlu-C18 diacid])QILLKQERQKKQREQAEKN[Aib]QILEQV-NH2)

Emax (% I) (CRF1R receptor): 38%
B1: SEQ ID NO 150 (peptide)
peptide: IVLSLD[dV]PIKLK([AEEA-AEEA-γGlu-C18 diacid])QILLKQERQKKQREQAEKNKQILEQV-NH2
modifications: N-terminus assumed
SMILES: CC[C@H](C)[C@H](N)C(=O)N[C@H](C(=O)N[C@@H](CC(C)C)C(=O)N[C@@H](CO)C(=O)N[C@@H](CC(C)C)C(=O)N[C@@H](CC(=O)O)C(=O)N[C@@H](C(=O)N1CCC[C@H]1C(=O)N[C@H](C(=O)N[C@@H](CCCCN)C(=O)N[C@@H](CC(C)C)C(=O)N[C@@H](CCCCNC(=O)COCCOCCNC(=O)COCCOCCNC(=O)CC[C@H](NC(=O)CCCCCCCCCCCCCCCCC(=O)O)C(=O)O)C(=O)N[C@@H](CCC(N)=O)C(=O)N[C@H](C(=O)N[C@@H](CC(C)C)C(=O)N[C@@H](CC(C)C)C(=O)N[C@@H](CCCCN)C(=O)N[C@@H](CCC(N)=O)C(=O)N[C@@H](CCC(=O)O)C(=O)N[C@@H](CCCNC(=N)N)C(=O)N[C@@H](CCC(N)=O)C(=O)N[C@@H](CCCCN)C(=O)N[C@@H](CCCCN)C(=O)N[C@@H](CCC(N)=O)C(=O)N[C@@H](CCCNC(=N)N)C(=O)N[C@@H](CCC(=O)O)C(=O)N[C@@H](CCC(N)=O)C(=O)N[C@@H](C)C(=O)N[C@@H](CCC(=O)O)C(=O)N[C@@H](CCCCN)C(=O)N[C@@H](CC(N)=O)C(=O)N[C@@H](CCCCN)C(=O)N[C@@H](CCC(N)=O)C(=O)N[C@H](C(=O)N[C@@H](CC(C)C)C(=O)N[C@@H](CCC(=O)O)C(=O)N[C@@H](CCC(N)=O)C(=O)N[C@H](C(N)=O)C(C)C)[C@@H](C)CC)[C@@H](C)CC)[C@@H](C)CC)C(C)C)C(C)C

EC50 (CRF1R receptor): 25.3 nM
Emax (% I) (CRF1R receptor): 53%
B2: SEQ ID NO 151 (peptide)
peptide: IVLSLD[dV]PIKLK([γGlu-C16 diacid])QILLKQERQKKQREQAEKNKQILEQV-NH2
modifications: N-terminus assumed
SMILES: CC[C@H](C)[C@H](N)C(=O)N[C@H](C(=O)N[C@@H](CC(C)C)C(=O)N[C@@H](CO)C(=O)N[C@@H](CC(C)C)C(=O)N[C@@H](CC(=O)O)C(=O)N[C@@H](C(=O)N1CCC[C@H]1C(=O)N[C@H](C(=O)N[C@@H](CCCCN)C(=O)N[C@@H](CC(C)C)C(=O)N[C@@H](CCCCNC(=O)CC[C@H](NC(=O)CCCCCCCCCCCCCCC(=O)O)C(=O)O)C(=O)N[C@@H](CCC(N)=O)C(=O)N[C@H](C(=O)N[C@@H](CC(C)C)C(=O)N[C@@H](CC(C)C)C(=O)N[C@@H](CCCCN)C(=O)N[C@@H](CCC(N)=O)C(=O)N[C@@H](CCC(=O)O)C(=O)N[C@@H](CCCNC(=N)N)C(=O)N[C@@H](CCC(N)=O)C(=O)N[C@@H](CCCCN)C(=O)N[C@@H](CCCCN)C(=O)N[C@@H](CCC(N)=O)C(=O)N[C@@H](CCCNC(=N)N)C(=O)N[C@@H](CCC(=O)O)C(=O)N[C@@H](CCC(N)=O)C(=O)N[C@@H](C)C(=O)N[C@@H](CCC(=O)O)C(=O)N[C@@H](CCCCN)C(=O)N[C@@H](CC(N)=O)C(=O)N[C@@H](CCCCN)C(=O)N[C@@H](CCC(N)=O)C(=O)N[C@H](C(=O)N[C@@H](CC(C)C)C(=O)N[C@@H](CCC(=O)O)C(=O)N[C@@H](CCC(N)=O)C(=O)N[C@H](C(N)=O)C(C)C)[C@@H](C)CC)[C@@H](C)CC)[C@@H](C)CC)C(C)C)C(C)C

EC50 (CRF1R receptor): 100 nM
Emax (% I) (CRF1R receptor): 22%
B3: SEQ ID NO 147 (peptide)
peptide: IVLSLD[dV]PIKLK([γGlu-γGlu-C16 diacid])QILLKQERQKKQREQAEKNKQILEQV-NH2
modifications: N-terminus assumed
SMILES: CC[C@H](C)[C@H](N)C(=O)N[C@H](C(=O)N[C@@H](CC(C)C)C(=O)N[C@@H](CO)C(=O)N[C@@H](CC(C)C)C(=O)N[C@@H](CC(=O)O)C(=O)N[C@@H](C(=O)N1CCC[C@H]1C(=O)N[C@H](C(=O)N[C@@H](CCCCN)C(=O)N[C@@H](CC(C)C)C(=O)N[C@@H](CCCCNC(=O)CC[C@H](NC(=O)CC[C@H](NC(=O)CCCCCCCCCCCCCCC(=O)O)C(=O)O)C(=O)O)C(=O)N[C@@H](CCC(N)=O)C(=O)N[C@H](C(=O)N[C@@H](CC(C)C)C(=O)N[C@@H](CC(C)C)C(=O)N[C@@H](CCCCN)C(=O)N[C@@H](CCC(N)=O)C(=O)N[C@@H](CCC(=O)O)C(=O)N[C@@H](CCCNC(=N)N)C(=O)N[C@@H](CCC(N)=O)C(=O)N[C@@H](CCCCN)C(=O)N[C@@H](CCCCN)C(=O)N[C@@H](CCC(N)=O)C(=O)N[C@@H](CCCNC(=N)N)C(=O)N[C@@H](CCC(=O)O)C(=O)N[C@@H](CCC(N)=O)C(=O)N[C@@H](C)C(=O)N[C@@H](CCC(=O)O)C(=O)N[C@@H](CCCCN)C(=O)N[C@@H](CC(N)=O)C(=O)N[C@@H](CCCCN)C(=O)N[C@@H](CCC(N)=O)C(=O)N[C@H](C(=O)N[C@@H](CC(C)C)C(=O)N[C@@H](CCC(=O)O)C(=O)N[C@@H](CCC(N)=O)C(=O)N[C@H](C(N)=O)C(C)C)[C@@H](C)CC)[C@@H](C)CC)[C@@H](C)CC)C(C)C)C(C)C
